Holding throughout (assay): single-molecule TIRF
Data set [1] deals with MDA5 (human). The note with it: biotin on annealed RNA linkers 1 and 2, smTIRF imaging buffer, salt, pH and temperature not given in the material, proteins 3-100 nM, with or without ATP or ADPCP.
The test system of data set [2] is MDA5ΔN (human). Particulars: biotin on annealed RNA linkers 1 and 2; smTIRF imaging buffer, salt, pH and temperature not given in the material; proteins 3-100 nM, with or without ATP or ADPCP.
The subject of data set [3] is MDA5(Q57E) (human). Particulars: biotin on annealed RNA linkers 1 and 2; smTIRF imaging buffer, salt, pH and temperature not given in the material; proteins 3-100 nM, with or without ATP or ADPCP.

Turning to 11.6-kb dsRNA, the binding signal (frequency of static binding) in data set [1] (ADPCP, translocation 0) came to 0.337; in data set [1], 0.022; in data set [1] (no ATP, translocation 0), 0.136; in data set [2], 0.105; in data set [3], 0.086. The binding signal (frequency of translocation) in data set [1] was 0.114; in data set [2], 1.42; in data set [3], 0.527.

The values above are taken from paper PMC12589613.
